Here are results for four molecules from patent publication US20220347236A1 (GL INNOVATION, published 2022).

A word on the koff: it is the rate constant with which the complex falls apart. A lower koff goes with a long-lived complex. By kon is commonly meant the rate constant with which the complex forms. As usually defined, the Kd is the constant that tells how readily two partners part at equilibrium.

The target in assay [1] is T1, human IgE (human, UniProt P01854-1 1-428).
T1 construct: Bought human IgE; also called human IgE (Calbiochem)
Kind of assay: SPR (ProteOn XPR36), ratio of ka to that of omalizumab. On the procedure: (§1) The experiments were conducted by identifying zero base using 25 mM NaOH as a regeneration buffer, and then repeating the above steps. Thereafter, a binding curve was identified using a protein binding analyzer (ProteOn XPR36, Bio-Rad Laboratories, Inc., USA).

The target in assay [2] is T1, human IgE. Kind of assay: SPR (ProteOn XPR36, GLC chip), IgE coated, protein flowed at various concentrations. On the procedure:
as §1

For assay [3], the target named is T1, human IgE. Nature of the assay: SPR (ProteOn XPR36), ratio of KD to that of omalizumab. On the procedure:
as §1

In assay [4] the target is T1, human IgE. Kind of assay: SPR (ProteOn XPR36, GLC chip), IgE coated, protein flowed; KD = kd/ka. The procedure: as §1
For assay [5], the target named is T1, human IgE. Kind of assay: SPR (ProteOn XPR36), ratio of kd to that of omalizumab. On the procedure: as §1
The target of assay [6] is T1, human IgE. Kind of assay: SPR (ProteOn XPR36), ratio of KD of omalizumab to KD of IgETRAP. The procedure:
as §1

In assay [7] the target is T1, human IgE. Nature of the assay: SPR kinetics on IgE (Table 3), omalizumab as reference; paragraph 125 ties the 1.5-fold end to FceR1αECD-Fc2ST. The procedure: as §1
(In general: Surface plasmon resonance follows binding to a sensor surface in real time, without labels.)

For assay [8], the target named is T1, human IgE. Kind of assay: SPR (ProteOn XPR36), human IgE.
Assay [9] deals with T2, mouse IgE (anti-dinitrophenyl IgE) (mouse, UniProt P06336 1-421). Kind of assay: cell-based or functional assay.
The target of assay [10] is T1, human IgE. Kind of assay: cell-based or functional assay.
Assay [11] has as its target T2, mouse IgE (anti-dinitrophenyl IgE). Nature of the assay: cell-based or functional assay. The source holds these as a separate data set.
For assay [12], the target named is T1, human IgE. Kind of assay: SPR kinetics on IgE (Table 3), omalizumab as reference; paragraph 125 ties the 69-fold end to FcεRIαECD-Fc2ST. The procedure: as §1

T2 sequence (P06336 whole entry): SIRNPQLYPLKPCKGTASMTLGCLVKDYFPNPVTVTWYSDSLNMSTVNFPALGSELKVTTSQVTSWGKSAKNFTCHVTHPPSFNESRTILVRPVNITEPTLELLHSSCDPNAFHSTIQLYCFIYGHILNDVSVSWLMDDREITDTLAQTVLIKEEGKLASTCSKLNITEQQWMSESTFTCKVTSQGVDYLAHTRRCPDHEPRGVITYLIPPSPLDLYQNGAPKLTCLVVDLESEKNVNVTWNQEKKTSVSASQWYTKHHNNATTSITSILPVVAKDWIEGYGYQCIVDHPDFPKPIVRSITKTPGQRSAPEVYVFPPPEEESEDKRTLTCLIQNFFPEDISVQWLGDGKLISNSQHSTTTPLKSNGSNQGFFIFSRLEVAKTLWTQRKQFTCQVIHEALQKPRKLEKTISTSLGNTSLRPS
T1 sequence (P01854 other isoform, or with tags, fused parts or gaps): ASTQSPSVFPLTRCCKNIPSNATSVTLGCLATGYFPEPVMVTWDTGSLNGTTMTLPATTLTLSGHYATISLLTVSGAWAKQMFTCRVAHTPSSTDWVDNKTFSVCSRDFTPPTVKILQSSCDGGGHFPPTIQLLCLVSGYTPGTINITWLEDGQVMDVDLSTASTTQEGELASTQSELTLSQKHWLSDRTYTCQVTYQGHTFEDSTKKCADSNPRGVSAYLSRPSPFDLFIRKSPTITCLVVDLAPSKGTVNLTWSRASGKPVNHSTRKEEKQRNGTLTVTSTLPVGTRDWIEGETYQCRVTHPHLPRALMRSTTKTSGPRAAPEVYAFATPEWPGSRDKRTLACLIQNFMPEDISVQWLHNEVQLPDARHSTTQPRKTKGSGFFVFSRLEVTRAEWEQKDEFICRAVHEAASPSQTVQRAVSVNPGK

B1: FcεRIαECD-Fc3 (Fc fusion)
chain: VPQKPKVSLNPPWNRIFKGENVTLTCNGNNFFEVSSTKWFHNGSLSEETNSSLNIVNAKFEDSGEYKCQHQQVNESEPVYLEVFSDWLLLQASAEVVMEGQPLFLRCHGWRNWDVYKVIYYKDGEALKYWYENHNISITNATVEDSGTYYCTGKVWQLDYESEPLNITVIKAPREKYWLQAQPQAEGSLAKATTAPATTRNTGRGGEEKKGSKEKEEQEERETKTPECPSHTQPLGVFLFPPKPKDTLMISRTPEVTCVVVDVSQEDPEVQFNWYVDGVEVHNAKTKPREEQFNSTYRVVSVLTVLHQDWLNGKEYKCKVSNKGLPSSIEKTISKAKGQPREPQVYTLPPSQEEMTKNQVSLTCLVKGFYPSDIAVEWESNGQPENNYKTTPPVLDSDGSFFLYSRLTVDKSRWQEGNVFSCSVMHEALHNHYTQKSLSLSLGK
With B1, the “fold of ka against omalizumab” value with human IgE [1] amounted to 2 fold. Moreover, in the assay with human IgE [2], the koff stood at 0.000133 s⁻¹ and the kon was found to be 198000 M⁻¹ s⁻¹. In addition, the “fold of KD against omalizumab” value with human IgE [3] is 22 fold. For the same molecule, the Kd in the assay with human IgE [4] came out at 0.672 nM. In the assay with human IgE [5], the “fold of kd against omalizumab” value came to 45 fold.

B2: FcεRIαECD-Fc3ST (Fc fusion)
chain: VPQKPKVSLNPPWNRIFKGENVTLTCNGNNFFEVSSTKWFHNGSLSEETNSSLNIVNAKFEDSGEYKCQHQQVNESEPVYLEVFSDWLLLQASAEVVMEGQPLFLRCHGWRNWDVYKVIYYKDGEALKYWYENHNISITNATVEDSGTYYCTGKVWQLDYESEPLNITVIKAPREKYWLQAQPQAEGSLAKATTAPATTRNTGRGGEEKKGSKEKEEQEERETKTPECPSHTQPLGVFLFPPKPKDTLMISRTPEVTCVVVDVSQEDPEVQFNWYVDGVEVHNAKTKPREEQFNSTYRVVSVLTVLHQDWLNGKEYKCKVSNKGLPSSIEKTISKAKGQPREPQVYTLPPSQEEMTKNQVSLTCLVKGFYPSDIAVEWESNGQPENNYKTTPPVLDSDGSFFLYSRLTVDKSRWQEGNVFSCSVMHEALHNHYTQKSLSLSLGK
modifications: sialic acid added (α-2,6-sialic acid transferase co-expressed)
notes: Dimer; also called FcεRIαECD-Fc3 + a2,6-ST
As for B2, the “fold of ka against omalizumab” value with human IgE [1] is 1.7 fold. Moreover, in the assay with human IgE [2], the koff was 0.000149 s⁻¹ and the kon stood at 240000 M⁻¹ s⁻¹. Moreover, the “fold of KD against omalizumab” value in the assay with human IgE [3] was 24 fold. In addition, the Kd in the assay with human IgE [4] amounted to 0.621 nM. Also, the “fold of kd against omalizumab” value with human IgE [5] was found to be 40 fold.

B3: FcεRIαECD-Fc2ST (Fc fusion)
chain: VPQKPKVSLNPPWNRIFKGENVTLTCNGNNFFEVSSTKWFHNGSLSEETNSSLNIVNAKFEDSGEYKCQHQQVNESEPVYLEVFSDWLLLQASAEVVMEGQPLFLRCHGWRNWDVYKVIYYKDGEALKYWYENHNISITNATVEDSGTYYCTGKVWQLDYESEPLNITVIKAPREKYWLQRNTGRGGEEKKGSKEKEEQEERETKTPECPSHTQPLGVFLFPPKPKDTLMISRTPEVTCVVVDVSQEDPEVQFNWYVDGVEVHNAKTKPREEQFNSTYRVVSVLTVLHQDWLNGKEYKCKVSNKGLPSSIEKTISKAKGQPREPQVYTLPPSQEEMTKNQVSLTCLVKGFYPSDIAVEWESNGQPENNYKTTPPVLDSDGSFFLYSRLTVDKSRWQEGNVFSCSVMHEALHNHYTQKSLSLSLGK
modifications: sialic acid added (α-2,6-sialic acid transferase co-expressed)
notes: Homodimer; also called IgETRAP; FceR1αECD-Fc2ST
For B3, in the assay with human IgE [1], the “fold of ka against omalizumab” value was 1.5 fold. Further, in the assay with human IgE [6], the “Comparison of KD [Omalizumab/IgETRAP]” value is about 69 fold. In the assay with human IgE [2], this molecule came in with a koff of 5.69e-05 s⁻¹ and a kon of 264000 M⁻¹ s⁻¹. For the same molecule, the “fold of KD against omalizumab” value with human IgE [3] is 69 fold. For the same molecule, the “fold lower association rate (ka) than omalizumab” value with human IgE [7] lay within 1.5 to 2 fold. In addition, the Kd with human IgE [4] stood at 0.216 nM. Further, in the assay with human IgE [8], the Kd is 0.215 nM, the koff turned out to be 5.69e-05 s⁻¹ and the kon came out at 264000 M⁻¹ s⁻¹. Besides, the “IC50 of inhibition of degranulation of mouse bone marrow-derived mast cells (β-hexosaminidase release) in the presence of 1 µg/ml mouse IgE” value in [9] amounted to 0.45 µg/mL. Besides, in the assay with human IgE [10], the “IC50 of mast cell inhibition (β-hexosaminidase release, human FcεRI-expressing mouse bone marrow-derived mast cells, human IgE 1 ug/mL)” value was about 0.0112 µg/mL and the “fold higher inhibitory ability on mast cell activity than Xolair” value is 58 fold. Also, in assay [11], the “Average inhibition ratio (%) of mast cell degranulation at IgETRAP 0.016 ug/mL (0.11 nM; IgE/IgETRAP molar ratio 47.8), anti-DNP IgE 1 ug/mL” value was 2.12%; the “Average inhibition ratio (%) of mast cell degranulation at IgETRAP 0.063 ug/mL (0.42 nM; IgE/IgETRAP molar ratio 12.5), anti-DNP IgE 1 ug/mL” value was 12.4%; the “Average inhibition ratio (%) of mast cell degranulation at IgETRAP 0.25 ug/mL (1.67 nM; IgE/IgETRAP molar ratio 3.15), anti-DNP IgE 1 ug/mL” value was determined as 13.8%; the “Average inhibition ratio (%) of mast cell degranulation at IgETRAP 0.5 ug/mL (3.33 nM; IgE/IgETRAP molar ratio 1.58), anti-DNP IgE 1 ug/mL” value is 49.4%. For the same molecule, in assay [11], the “Average inhibition ratio (%) of mast cell degranulation at IgETRAP 1 ug/mL (6.67 nM; IgE/IgETRAP molar ratio 0.79), anti-DNP IgE 1 ug/mL” value stood at 99.3%; the “Average inhibition ratio (%) of mast cell degranulation at IgETRAP 2 ug/mL (13.3 nM; IgE/IgETRAP molar ratio 0.40), anti-DNP IgE 1 ug/mL” value is 99.4%; the “Average inhibition ratio (%) of mast cell degranulation at IgETRAP 4 ug/mL (26.7 nM; IgE/IgETRAP molar ratio 0.20), anti-DNP IgE 1 ug/mL” value stood at 99.8%. Further, in the assay with human IgE [5], the “fold of dissociation rate (Kd) against omalizumab” value is about 94.5 fold and the “fold of kd against omalizumab” value is 106 fold. In addition, the “fold change of equilibrium dissociation constant (KD) against omalizumab (printed 'higher'; meant as stronger binding)” value with human IgE [12] lay in the range of 22 to 69 fold.

B4: FcεRIαECD-Fc2 (Fc fusion)
chain: VPQKPKVSLNPPWNRIFKGENVTLTCNGNNFFEVSSTKWFHNGSLSEETNSSLNIVNAKFEDSGEYKCQHQQVNESEPVYLEVFSDWLLLQASAEVVMEGQPLFLRCHGWRNWDVYKVIYYKDGEALKYWYENHNISITNATVEDSGTYYCTGKVWQLDYESEPLNITVIKAPREKYWLQRNTGRGGEEKKGSKEKEEQEERETKTPECPSHTQPLGVFLFPPKPKDTLMISRTPEVTCVVVDVSQEDPEVQFNWYVDGVEVHNAKTKPREEQFNSTYRVVSVLTVLHQDWLNGKEYKCKVSNKGLPSSIEKTISKAKGQPREPQVYTLPPSQEEMTKNQVSLTCLVKGFYPSDIAVEWESNGQPENNYKTTPPVLDSDGSFFLYSRLTVDKSRWQEGNVFSCSVMHEALHNHYTQKSLSLSLGK
notes: also called FcεRIα ECD fusion protein; polypeptide dimer
As for B4, the “fold of ka against omalizumab” value with human IgE [1] was 1.9 fold. Moreover, in the assay with human IgE [2], the koff turned out to be 8.29e-05 s⁻¹ and the kon stood at 214000 M⁻¹ s⁻¹. Besides, the “fold of KD against omalizumab” value in the assay with human IgE [3] stood at 38 fold. Further, the Kd in the assay with human IgE [4] was found to be 0.388 nM. For the same molecule, the “fold of kd against omalizumab” value with human IgE [5] was determined as 73 fold.
